# The domain aggregation screens of Martell et al. (2025)
# Assay: soluble fraction after stress (log2 fold change); higher = more stays soluble; pooled small domains, quantitative proteomics
# Conditions: stress: 75 degC
# 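Also: 20 min heating vs room temperature control held 20 min.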
row,Sequence,soluble fraction (log2)
1,HMDAEETLGARLRRLRQARGLSLAGLAQAAGLSKPSIWAWENGTTAPRRTSLLALARALDVPEQQLTGV,-0.715
2,HMDAEKHIVTPEAGLRLDRALTDALPNLSRSRVKQLINEGLVTTENKTITAPSYRVKYGDSFEISIPPPT,-0.16
3,HMDAIIVPSVLKMKPFEAEEKLSALGLRMKINDTVYIDNMKPGVIVEQSPTAEEDVKTDRVIYVIVNA,-0.327
4,HMDAKQLQSLKNNNEQLAGFIVRLTNFYEGLSPDIDAELSKLRSHLSGKVDYTLATVSINKINQLFMLEP,-2.97
5,HMDALIWYVSRGQQKFGPFNYFGVLKALQDKSVFEFDYVWKEGTENWVRLAEHELFSQEKVRELLA,-0.554
6,HMDAMLGEALRLIRVYHDLKQKQAAERLEVSTSYLSEIERGLKTPTLDIIQRYATVFDMPVSSIMFFSENL,-3.1
7,HMDAMLSEQLREKRGELLIEVDAIAGNALRWATLSAEQQDAWAVYRQALLDVPQQAGFPNDVVWPINPN,-0.42
8,HMDAPKPDIGMSTDQIRSSLGQPGSQTRLETGGGRIYELWIYLYPDGKELQIYFDNAKVVKMEALS,-1.19
9,HMDAPLIIAETRVDVPDATVSDAVMMLDLRNTNALLFKNSGSGVLNMVYRRGDGTIGWGEPQ,-0.011
10,HMDASKVKIEDLGLSTRTENALVAASIRTAGGLARKSEMDLLSTDGLGEKGITEIKKALSDLGLELK,0.4
11,HMDAVSTMIENLRVKTGKSLADWVGLAKGSGADKHGAMVGWLKSEHGLTHGYANLIAHETFRSAA,-0.129
12,HMDAVTPVLSRIRDARFKRMVLPGDEIEISVTLIDTIGKFFNLSGQIRNKDKISLTVNFALALV,0.195
13,HMDDADPYEILGVERDAEDAEIKRAYHDLIRENHPDRLMAEGLPQEMIDVANEKVAFINDAYDRIEKLRGM,-0.193
14,HMDDENKIEVMINEEKVQLTGKDKYVFVDIFNYIDMDLTRIHGNLVLKLNGENASHNSLLKSGDKIEARWE,-0.746
15,HMDDERDRLVQQAMEGLSPALREILLLAYFQRMPYNQIAESLRIPLGTVKSRLHAAVAAFAKRWQELNRS,-0.77
16,HMDDFNLSPREKDVLGHLVKGNSYKMIADELQIGYDTVHSHIKKIYKKLHVNSMSEAVAKALKNKL,0.332
17,HMDDGARQLVDQLNRLIANPAVSARIIHGYLILEGRVESEWEKTRTLLLAQVAGLPVIDLITVS,-2.35
18,HMDDGLTRLTPRENEVLELMAQGRSNTAIAERLVLSYGAVEKNVSSIFTKLDLPLDAGDHRRVLAVLRRLN,-0.668
19,HMDDGNHTEYIVLEKAKFYDEAGEYEEGRDLVLSFDKYQDNWKLVYTLGVFNKKLNNLEEARKYYKQALE,-0.0263
20,HMDDHKQHLIDFYHSRKRMPTYTEMMALFGYKSKNAVARLVEKMIDAGIVTKDKLGKLLPTTLFDSVPL,-0.00288
21,HMDDHLRLSDNERISAMSALATHFTEGRLDTSEFDERTLAASQAKSRGDLRPLFDDLPGQLPAALSP,0.0298
22,HMDDKLKKLEEVFEMQEGTLTPDMRLDELEEWDSMTRLSLIVMMEDDYGKKVKRSEVMNYTTVQDIVDSME,-0.0532
23,HMDDLSPEENKVIGAQVREELARRRLSRQHLADKAKISLSTLEKALTGTRPFTLASVVRIEEALQLQLRK,-1.35
24,HMDDPEISQEQRQQLFRTAKEHFGASGNDVLKEILADHGRDSTVKMPVSVFAEIMGDLLKRALD,0.612
25,HMDDPQAELLARAVRRVALAAAERTRRNEYGGVYLGLFRQFGISSYRRTPPARLHEALEWLERWRGDLM,-0.134
26,HMDDTVILPIQINGKRRAEISVPKAMPASEVEKLALANEDVLRFLAGQPIKKLIVVPGRIINVV,0.0584

row,Sequence,soluble fraction (log2)
1,HMDDVGERIRKIREEKNLSLDEISKMTGFDVEFLAKIENKERQPQLGTVIKLSKALDSAFGRL,0.162
2,HMDDVGYLRKRLQQALAQLSDDLRNTYTLFQIGKQSIKQIAAETGASESLVKVRIHRAKQKLQELLADLQ,-1.47
3,HMDEDLQEALRKLNPIQANERKLLLKMLEQHRWNVSSVAKAFDVSRNTLYRRLHKLHIPLSNPSE,-1.33
4,HMDEEAIELTQEVMKLPPKQREVILLYYYHGLTGKEIAKALGISGAAVSKRLKQAKNQLHFALK,-0.282
5,HMDEEVLVVQEGGERLDVFVAANAEGITRSFVQNLIKKGDVTVDGAPRKANYRLRSGQVVRFSLPEP,-0.204
6,HMDEFEEGVITYFNSEKGFGFIRESKTKQSVFVHSKQLSSPVQLNDKVKFIVNKGLKGLEATEVSVI,-0.818
7,HMDEFQLTPREQEILGLLVKGYTYKRIASELNLSYATVNRHVSNVYVKLRVHSVNEAVALAVRKGL,-1.39
8,HMDEKLAHKLVSDFRQAAASLERFPFRNPVLRSEVFTVEKYRKLVFDKYHILLYQVKDQVVYVEYVIDGRQ,-0.94
9,HMDEKVTIPSVSGLLLSEAKTKLVDAGLTVETVYDDESKEAKDTVLSQSPLQYGKVDKGTVVTLTVSSGKG,0.332
10,HMDELPKDILRSFGLPDKPWAMELLRNLRRDGFALDGETARAYAEMAAMKPPRTDARQWMTAADVAYRRG,-0.343
11,HMDEMPVEFVKISIKAGHPWENRKIKDLASLPDLLLVLILRGEERIIPNGNTVVLAGDKIVLSALSPE,-2.74
12,HMDENILKTRIEDLDLSVRTIKALTGASIRTVSGLARKKESDLLEISGLGDKGIQEIKRALGSLGITL,-0.498
13,HMDENTEQESQTVVVPDVTGKSLSEAASILREAGLDYLAEQTGTVVTKQMPLPDAEVLINTTVLLYTDSE,0.143
14,HMDEPSITYGKVKVQTSLNVRQGPGTQYARIGSLGPNVRIQILGQEGQWYKIKYGNLQGYVHSDYVELEK,-0.026
15,HMDEQKNREIALIENIQREDLNPYEKALGIRNLMDKYGLTQEEVSKRIGKSRSAVSNTVRILNLAPDVL,0.125
16,HMDEQLAWLYRKINAFSEIDKALILLYLEDKKYDEIAETLGISSVNARVKMNRIKKRLKEMINDR,-3.14
17,HMDEQVETLKNLISELPKEQLEVLVMRHYEDLSFKEISEKTGVSINTALGRMRYALINIRKLMKENN,-0.145
18,HMDESLIEEAKAMILQMKIEGSVRVRSNGLLEFRNPLFGSVYGRSVEELQEKLNKKVREQKSRI,-0.443
19,HMDEVPMPPEYQYLRVGSRVHHATFGWGKVTRLSQPWPQTRAEVFFENIGPKKLVLAHAHLTMD,-3.26
20,HMDEYTAVDSRLDLELAMKRLKPEEAEVLRLVFDYGLPQRAIAERLGVSQMSVSRMQRRAIGKLKRWLSDN,-1.43
21,HMDFKKKIIESWADIAETLRGLTVDSNISDWTTKQKNAYETLADKAELAGLSIADLNSILVELGYM,-0.119
22,HMDFNDPTMEKSLVELPAMSNSTLRDLSENNIKKLEELAEMSVGELMDIASKISESDASALIMEARKPWF,-0.312
23,HMDFRVGVWVELVQQRRSVRTQLTWVSPQHTLFLFTAKDGSTQSMTLRMRDKLLAEGNLRIVAPPSR,-2.37
24,HMDFSENEPVTVRVLSILKNNTIRIAVKGAVLQAQTALSQDIREGAFLLMRVHITDNTVVLTPY,0.112
25,HMDFSNVNFSQVSDSELDLLMRRASAQGYTQFDLLKIARAQGLTQAEIEKLDKRFKSAETVAYVAENA,0.0531
26,HMDFTHFTLKQDGKFAGSSNLLHQAVIAAARLAAETGKPVTVMAHVRGGGTRKAVFNPDGTNDKIWN,-1.05

row,Sequence,soluble fraction (log2)
1,HMDGAPVTVIKNGEVDVATTMRVGLSASELMFKLRAAGVDEVQIVHRAVLEQNGQLTIIKYGEE,-2.03
2,HMDGASVQRITELTATLNRYRHEYYNLAKPSVSDAVYDRLFDELAALEQKTGIVLSNSPTQTV,-0.326
3,HMDGFVFVMPIKETRMFSVNDERPLVGIVKYSNGEFEKEQLIGFRPNSEYEFIIEGQRLYRVPVNSITIK,-1.08
4,HMDGIRLYPGLMIEHKNFGRGQVVSVNRERGTFTAFFGKNGTRTLTIQILKTDTVRPLASQKAGK,-0.594
5,HMDGKPSLIISNGQINYKEMVKLRYSLEDLLFQLRQNSIKSIEEVEYAFLESNGKLSIFPYNFL,-2.53
6,HMDGLGLGAVILAQRKRQGWTQEDLAARIGVSKGAVSKWETGQSYPDLPLVPRLAALFHITVDELLDYR,-2.35
7,HMDGLIRLNKLLATLGVESRRHAEEMIIAGRITVDGVTATEKGQKVRRGAVIKVDGVEVGPPP,-0.581
8,HMDGQPQLLIKNGQLLVSTALKNGMSANDLMFRLRTEGITDIRYVKRAVLEQNGQLTITQVGDD,-0.622
9,HMDGVTEYTVKSGDSFSAIINKHYNVNYDEKLMQAVAAYNNIEDMNKLQLGQIIKLPPKEQLNL,-0.0462
10,HMDGYVPAERIASEVGVSARTITREMHGLEMTLMPYGIALLRRTGAGFMLAGTAKALADLRKHMTEDADTQ,0.134
11,HMDHAHWEEHEVKLLLTLAIQEKEKFNWNQFGLTREGWRNIYPHFPQYSRKQINNKFDFLKQKYRAWKDS,-1.8
12,HMDHAVINSEEVTIKDLSEKIGVSAAEIIKALFTEGIIKTINDKIEYEYAQYVAGMFGVELTLKL,0.357
13,HMDIANEQEQIFITAMRNDDFNPILELKMKGYQPSKNVLKSLQPDVSSTTFIAAAKIFQMEGVL,-1
14,HMDIASNQIQGIKDSVGGDENYSKMVAWALESLPAEEVKAFNDLTETANAPAIKMAVQGLYSQYNNAM,0.195
15,HMDIDGVSENGRLILAALDKEALDFDTLAAETGIQESRLRTELTLLEIRKLIMKLPGQRYRLI,-2.39
16,HMDIDNDIIENILVMGVTKAIAINLSNEFERHRIIANIEYAKEKSKNSEIKNISAFTVEAIRQDYANS,-1.34
17,HMDIEITIPPEAKELDVSKILISGNIITDEQEFLDYLKQNNVAAFKDGNYKLNKNMTTEEIVNQIK,0.691
18,HMDIESREAWVDASGMGVRLDRWLTQLAPEFSRNHLQSLIERGAVRVDGQPALVASRKLRIGQQVAVSLIP,-1.31
19,HMDIEVEVPNLVGMSLDEAKSIIQSMGLVVGLTIEDPSAKVSDNSVTKQKPTYQTGVKLRSGDMIDIWYAG,-0.659
20,HMDIFSSFVAIKNANVRELPTAKSAQVATLSKGSEVTALGKVKGKNWYLVARDGKELGYVFGSLIAEAET,-1.56
21,HMDIINLADNIARLRRRRQITQEELADYLGVTKAAVSKWENRQTMPDILLLPRLAGLFEVTIDELVGY,-2.19
22,HMDIKDRSGVTIDESNEAQQESIIRESWAEQKISGNVDNYIAYLKANGMLLETAKIELAALQEKDASLRE,0.774
23,HMDILEVLIKKDLAMELLEQLTERQRTVVYLRYFYQLNQKEIADYLGISQQRVSEILSRAKAVLTAYTKK,-3
24,HMDILPEGNYKVNYDVIDEVGNIVANKNDIVVTEKSIKPLNTILGIDLYEVIHSQTGKYFTINGDNLTN,-0.0277
25,HMDINLGIGPLVKKYRTIKGYSIRELARNINVTASMLSQIERDIVNPSINTLKAISVELGVPMYKFFM,-2.38
